In the DeepSol protein solubility set:

Assay: soluble on expression in E. coli; label from the status in PepcDB or PDB records

| Sequence | soluble on expression in E. coli |
| --- | --- |
| MWDSENIEELSLVIGIGLDKPDDENLELTQQILVPKIISAKEGSSSDPTQLSITKGKTVHQMMRTSALKHKPTFSQHLRLILLSKSVIADQIGMDAIINQFVRDNGTRRSSYVFITNGRTKDIFNMNDEGEPASNVIYDLTENNKVTIRTMEPVTLGEISEHLTSDDSFLIPHVGKENGKLAINGASIIKNKLWHRDLTPIEVQNISLFSGTVEGGVIDLKRDGHLFSYEVYSSNRKIKTAYKDGKFKFTVTRNIEGRLSEDWNPNEDSFKDSYIKSIEKTVEKRVHETVTSFITEKLQKEIKADVTGLGNEVRIHYPQKWKKISRKWDDDYFSNAEIDYRVNVIVRDFGTKGANKLEHHHHHH | not soluble |
| MMKLNLFINANETESYIDIHAPKMNDHVQSIINAVNDLDKSHTLVGYIDKEIHIINVSDVITFQVINKNVTAITSNQKFKLKLRLYELEKQLPQHFIRISKSEIVNKYYIEKLLLEPNGLIRMYLKDAHYTYSSRRYLKSIKERLSI | not soluble |
| MGSDKIHHHHHHLIYDVVIAGGGPVGLFLACELRLAGLPVLVLEQAEDPGSPLKRLPFGLRGLSAPTLEAFYRRGMLNEIAAPQRAKDDSGSSVPNAAHWMQQQRRPGGHFAGIQFYYDNIDTSKWPYRLPGPAGTSMAVEMEHIESVLTARAIALGVEIRRGLSVDGFDQSEEGVTVHAGSEIFRGRWLVGCDGGRSTVRRIGGFDFVGTDPEFTGYSVQVEMADPEKLKPGRHYTPTGMYTYQKPGTIAMVDFDGGAFHRTQPITLDHVQAVLRHISNTDVTVTALQLATTWTDRAYHATTYRKGRVLLAGDAAHIHSPLGGQGLNLGLGDAMNLGWKLAATVRDDAPAGLLDSYTSERHPVGAQVLDWSRAQVAIMRPSRSSRALEAIMRDLIDTRDGATYFAERVWGTALRYDLGSSHTLVGRSAPDFELIDGTRLGELFTKGRGLLLDFDALPSLQALASRWSDRITYVASDVKDRLGVSAVLVRPDGFVAWAGEASPNHDEATQAASQWFGKPEEEGRSPA | not soluble |
| MSLSLIKVGLVGIGAQMQENLLPSLLQMQDIRIVAACDSDLERARRVHRFISDIPVLDNVPAMLNQVPLDAVVMAGPPQLHFEMGLLAMSKGVNVFVEKPPCATLEELETLIDAARRSDVVSGVGMNFKFARPVRQLREMTQVDEFGETLHIQLNHYANKPRAPLWGLDSTLRSFLLAQAIHTIDLAITFGDGELRRVQSSVQRHDDALIVRADMAFSSGATASLLAGTSFPYFEFDMKLVSSSSTLVELDNLWNITLHEPEHATRPTGAAKRWRGAWQPGPLDSGYERSGYHGELHQFFQAIREHRRFEADFASLLPTYRVIEEICSADAVAQGLQNAHSRIRTGIESLSEGHHHHHH | soluble |
| MGSDKIHHHHHHMPERVLNFRALFLHGLYKMDKPKAYCRLFLPSFLLLSACTVDISQPDPSATAVDAEAKTWAVKFQHQSSFTEQSIKEITAPDLKPGDLLFSSSLGVTSFGIRVFSTSSVSHVAIFLGDNNVAEATGAGVQIVSLKKAMKHSDKLFVLRVPDLTPQQATDITAFANKIKDSGYNYRGIVEFIPFMVTRQMCSLNPFSEDFRQQCVSGLAKAQLSSVGEGDKKSWFCSEFVTDAFAKAGHPLTLAQSGWISPADLMHMRIGDVSAFKPETQLQYVGHLKPGIYIKAGRFVGLTR | not soluble |
| HEHNISVTGGTDKIQYYLSANYLGQDGELRIGDEYSNRYTASAKINAQLSKIVSVGFNTRFIRSDYVQPTHLNESFFAEIGRQCWPTKPLYDPNGILYDDHVLQMQNGGEKQERNTWLYQQLNITVEPIKGWRLIGDLSYRYNTQYSHWDYLTVHQTGVDGKTKGNTWNNDSQVHEGTYASDYFNVNLYTDYAKTFAKSHNMKVLFGFQAEQNNYKDIAAEKLGVIYPGKPTINTSTGMDSNNQKVAPNVAGGHNRWATAGFFGRLNYDYLEKYLLEVNLRYDGSSRFRSDSRWGFFPSASVGWNIAREKFFLPVSKVVNTFKVRASYGSLGNQNTSSLYPTYSTIGTGTGSWIIDGTLANIAWAPSLVSYNLSWEKIRTWNAGVDFGLFNNRLTGSFDYYIRKTDDMVGPSEKLPVVLGTAVPSSNNTNLKTFGWELELMWKDRLNNGLNYSARFTLADSRTKITRYSNPSGLIDGFYAGKYVGEIWGYETIGIAQSDQEMAEHIGRLINGGQSNLGQDWKAGDIMYKDLNEDGKIDAGSRTLQDHGDLKRIGNSTPRYNVGLELAADWKGFDIRMFWQGTLKRDYFQGSYYFWGANGRQGPWFSTALKGHDDYFRNDEASPLGTNLNSYYPRPLFNTDKNQQSQTKYLQDASYLRLKNLQIGYSLPHNIVQKMGMQHLRIFASGENLFTITSLIDFFDPESIEGGSWGHGNVYPLSRTFSFGLNVTF | not soluble |
| MSLKGIVFGSGQIGSSVALNLVDGMDVTVADRDPTNLRKIQDNIGSRVSVIQVDALRDDIKHIISDYDIVVSALPGSVGFQFAKSIAPFGVRMIDISYYEDDVFLLDDVAKKSSSVIVPDIGFAPGISNVLVGHFSYELEDVKDVHIYVGGIPEKRIGGLDYVITWSVEGLLDEYTRPVHIVQNGSITQVEPLSGLEKINIQKYTDLEAFYTDGLRTLGKTIRASGSMWEKTVRYSGHAEKIRLLKDLGFFSRKKVKVGNSEIAPFDFTAEIFRNNLSMSGVKDVSLMYVKVTGTRNGDIVKHEASMVAPYDEKRKRSSMANVTSVPASATADFLSKNEIGKYGVVAPEILGKDENFYKQFINYLGQYGIIISEGHHHHHH | not soluble |
| MGSDKIHHHHHHTDDEEKDNNGQGSVSVETNYLPIADPYVMFYNNKYYAYGTGGTTAGEGFACFSSDDLKNWKREGQALSATDSYGTWGFWAPEVYYVESKKKFYLFYSAEEHICVATSTTPEGPFRQEVKQPIWSEKSIDTSLFIDDDGTPYLYFVRFTDGNVIWVAQMTDDLMSIKTETLNQCIKAEVSWELLQGKVAEGPSLLKKNGVYYLIYSANHYENKGYGVGYATSDTPMGPWVKYSKNPLLQGDAATGLVGTGHGAPFQCKDGSWKYIFHAHWSAAEIQPRTSYIKDFAISDQGVVTISGTVIKPRVLK | not soluble |
| MGSDKIHHHHHHVNETSHSLEYEAFIEEARHVVEARFGHTGTTGEVPRLLLRHGTVRMARDMARGIRPCQVKMPDVSGLQYGDFAPLDPLALLRDEVKLPSLPAVVAELRDVLSSPNSSAADVARVISRDAGLSAFLLRMVNSAFYSFPSRIDTVSRAVALVGRQQLSTLALGVMVIGAMRDLPVAHLDLSLFWQHSIACAVVAGQLAEAAGMEEPERFFVAGLLHDIGRLAVFSLLPDRAAAILSMCSDYGMPAQDAELRVLGFDHATLGGMLLRKWNFPMSLVFSTLHHHVPERSVRHVEPAVVHVADVVVKGLGIGVSGMHQLPGFKEDAWQRLGVSVAVLEQLIDGLEERLRDTSSLLLE | not soluble |
| QDVIVRTAVAEDVAPIIKMRKHIKEFGSRDENEELIIRQIEKGVKRIYYIEQDQEVVAVAETSAENSFSAMITGVATSDGYRQRGFASTLLKKLCCDVLAEGKKPCLFYDNPVAGEIYHRLGFEHTGDFVMYK | not soluble |
| SLVSVRCAECKGKLLCGRSKCPLLEKYRFLKEIKIDSRILDPSPPSIFVGRVGYPKVYAGPLVSINADPVYADSPWLWKSIEEVIRLRTSMLRVSRRFRVEDVREEKKELTEMQEMTAAIKPVDVEAEIRKISRKAEFDDVMQPMGYSAIAESIKLAENPKIPDKVEKVYYDDMKAYEALSYLYNHGFSTYYLQKIFSAGILGERKSRKLVPTRWSITAVHSIVGEAIKREIAAYKPIDKTLLFNYEHFGNHFEVILSPENYFFQLVEIWQRKSFWSPKRTGLGLTART | soluble |
| MGSNGGGGGGGKQVLWEFHATGPRNISNPSWRDLIRSSWTDPNYRRIAVSCFVQAAYLLELDRQEKRNGESALAPNWWKPFKYKLVRPLIDSRDGSIYGVLLEWDQLAALSDLIVLRPNGAPKVVLAIRGTVLKQSTVVRDLEDDFRFFTMESLRGSVRFTGALEALKSAIDKRGSNNVCIAGHSLGAGFALQVGKTLAQDGIFVECHLFNPPSVSLGMGLRKLQEKAGKVLKRYVSGSSSNATELSHPTEDGGAASEIGEEKLIKEVKRWVPNLYINSCDYICCFYADRSGVATVTAEKHDGHSGTHSKLFVIAKGPKKFLEAHGLQQWWSDDYELQLAVHDSKLMYRHLKSLYVNES | soluble |
| MNVDEDCYFASLTHGLNTDCRRANAKMKETLKNYNFSAFLVEQNCLRCPNNDCNLSFVLILQKTEFFRLKRDVVFEVRPTIVVHRSFKELVSADRKIRQDITEKNTVGVQASVETVNKFVDACPSICNIQSQTDIMAEKMHIGIQTEEVKFVSEISALGITEVECQNVFPTSFIKTEPVSTSPVRTMEVQQDNDDDDVMFIEIRPRIHEFPSTREIKQEENTTEDTVHLEKVIPEDSVRDVKDEPISEPVEQETSSSSISKELGDSGSSKFSDVADNHTASLNLSMLSQRSTVTSSSISQSIPTPRGRDTPSAAKRAKFSDVEMCRICWDVTFFTTLEEYCNHVQDRHCSVARFKCSSCERKFWDIRSGTQHLKAHNEDGAGNSISHILPEISEEHLSKFINVANQCYPETFRNTQSEKILDIINALP | not soluble |
| MKVLIDTNVILDVLLNRASFVQDAIAVLELTCGNIQAYVSASAITDIYYIAYKELRDKIRVKNLIKTLLQIITVAGISDKEIMSAIDSDWADFEDSLQNAVAESHDCSMIITRNISDFNGSNLQIISPKDFIVQFTHLEHHHHHH | not soluble |
| MGSDKIHHHHHHMETLQLRDISETALLPLWARAMETLRPDAIIHDDKALEMYQRLNYDFKRFSNAWLSQLAIAIRTDLIDKLVMDFINAHPQAVIINLGAGFDSRYLRVDNGQIHWFDLDLPNVIAARRLFFSDSDRYRMLEQSLFDVSWLEHAAGESDNCLILAEGVLMYFTEQRIKQFFNDLAERIPHARMLLEMLPHGALGQAHLHEAIGWMNAAFQWTLHNIRRLESWNSHIKVRQEWCILDYHWERWGALSLLAWSPWHRYLFGEKLALLEFD | not soluble |
| MFAHQNASFPPRPEGRGGKEAVFRLTVFCIITFSSLICEAMKRAYKYRFYPTTEQAELLAQTFGCVRFVYNSILRWRTDAYYERKEKIGYLQANARLTALKKEPEFAWLNDVSCVPLQQSLRHQQTAFANFFAGRAAYPAFKSKRHKQAAEFTASAFKYRDGKLYMAKNKIPLDVRWSRPLPSVPSTVTISKDAAGRYFVSCLCEFEPASLPITSSMVGIDVGLKDLFVTDTGFRSGNPRHTAKYAARLALLQRRLSKKAKGSKNRAKAHLKVARLHAKIADCRLDALHKATRKLINDNQVVCVESLKVRNMIRNPSLSKAIADASWGELVRQLRYKGEWAGRSVVAIDQFFPSSKRCSCCGFIMKKMPLDVRKWQCPECGTDHDRDVNAARNIKAAGLAVLAHGEPVNPESLKAALEHHHHHH | not soluble |
| MSNIERRHTIMAKGSVRKKGKKWYYRFYVEDASGNLVQKECVGTESKSETEKLLRQAMDDYEKKKFVAKAENLTVGQLLDVWAEEELKTSTLSNGTVENYLGTIRNIKKHPLAERKLKNVTSEHLQSFFDLLSFGGVHPDGKEKKGYSKDYIHSFSAVMQQSFRFAVFPKQYITFNPMQYIKLRYQTDEVDLFSDEDMDGNIQPISREDYERLLAYLQKKNPAAILPIQIAYYAGLRIGEACGLAWQDVNLEEQCLTIRRSIRYDGSKRKYIIGPTKRKKVRVVDFGDTLVEIFRNARKEQLKNRMQYGELYHTNYYKEVKEKNRVYYEYYCLDRTEEVPADYKEISFVCLRPDGCLELPTTLGTVCRKVAKTLEGFEGFHFHQLRHTYTSNLLANGAAPKDVQELLGHSDVSTTMNVYAHSTRDAKRKSVRLLDKVVGND | not soluble |
| MGSDKIHHHHHHMFFETTFHDATEQEASLPGWRQEYRQVSTGGYDGRTMAILLPGVEILRETISVGTEQMFSAPEGSMIFYYYPKRDRSELVRGEKATGVSGFALNWTNRIGFMDADSDLLMLVLRRDAVADEDRSRIAELVEPPLENAAFLADWLLSLLGGARQQSHPCAWGKFDGVLADVITDRFELLFQKSLVRQTPHIAQTEQIYRKIRDRIFDAPDMPHSVKSLSRDLGVSAFNLRASCQSFTQIPLDRILMMLRLNGARRDLLHARCSPRKVSDIAMDWGFFHWSRFALRYKSLFGETPSQTLKG | not soluble |
